Laboratory results: article PMC5574827, “Improvement of the pharmacological activity of menthol via enzymatic β-anomer-selective glycosylation” (AMB Express, 2017)

Substrate: CC(C)[C@@H]1CC[C@@H](C)C[C@H]1O
Experiment: LC-MS/MS (MRM) of menthol glucoside, Lineweaver-Burk
Type: biochemical, Bacillus licheniformis
Conditions: UDP-glucose as sugar donor (2 mM in the general protocol), 1 mM MgCl2, 50 mM Tris-HCl pH 8.0, 30 °C, 10 min

B1: BLC (Bacillus licheniformis DSM 13 = ATCC 14580) (protein)
chain: MGHKHIAIFNIPAHGHINPTLALTASLVKRGYRVTYPVTDEFVKAVEETGAEPLNYRSTLNIDPQQIRELMKNKKDMSQAPLMFIKEMEEVLPQLEALYENDKPDLILFDFMAMAGKLLAEKFGIEAVRLCSTYAQNEHFTFRSISEEFKIELTPEQEDALKNSNLPSFNFEDMFEPAKLNIVFMPRAFQPYGETFDERFSFVGPSLAKRKFQEKETPIISDSGRPVMLISLGTAFNAWPEFYHMCIEAFRDTKWQVIMAVGTTIDPESFDDIPENFSIHQRVPQLEILKKAELFITHGGMNSTMEGLNAGVPLVAVPQMPEQEITARRVEELGLGKHLQPEDTTAASLREAVSQTDGDPHVLKRIQDMQKHIKQAGGAEKAADEIEAFLAPAGVK
notes: His-tagged, pET28a (BamHI/XhoI), expressed in E. coli BL21(DE3), Ni-NTA purified; cloned as in Wu et al. 2012
Protein B1 has a Km of 1.74 ± 0.6 mM and a kcat of 94.5 ± 2.33 min⁻¹.
